The target in test [1] is human chemokine receptor type 4 (CXCR4) (human) (UniProt P61073). The test is described as follows: radioligand competition binding; tracer 125I-CPCR4; Jurkat; site (1). Details: unit not given here. On the technique in general: In a radioligand displacement assay an active substance lowers the binding of a labelled ligand.
Test [2] shares this target. The test can be described thus: radioligand competition binding; tracer 125I-CPCR4; Jurkat; site (2). Further details: unit not given here.
For test [3] the target is unchanged. The test is described as follows: radioligand competition binding; tracer 125I-CPCR4; CMS5/CXCR4; site (1). Details: unit not given here.
Test [4] has the same target. The test is described as follows: radioligand competition binding; tracer 125I-CPCR4; CMS5/CXCR4; site (2). Further details: unit not given here.
Test [5] has the same target. The test can be described thus: radioligand competition binding; tracer 125I-SDF-1α; CMS5/CXCR4; site (1). Further details: unit not given here.
Test [6] shares this target. The test is described as follows: radioligand competition binding; tracer 125I-SDF-1α; CMS5/CXCR4; site (2). Further details: unit not given here.
For test [7] the target is unchanged. The test can be described thus: competition with 125I-CPCR4 tracer on CXCR4-expressing cells.
Test [8] has the same target. The test is described as follows: radioligand competition binding; tracer 125I-CPCR4.
The target is the same in test [9]. The test is described as follows: radioligand competition binding; tracer 125I-SDF-1α.
For test [10] the target is unchanged. The test can be described thus: radioligand competition binding; tracer 125I-CPCR4; Jurkat. Further details: unit not given here.
Test [11] has the same target. The test can be described thus: radioligand competition binding; tracer 125I-CPCR4; CMS5/CXCR4. Further details: unit not given here.
For test [12] the target is unchanged. The test is described as follows: radioligand competition binding; Jurkat cells.
Test [13] has the same target. The test can be described thus: radioligand competition binding; CMS5/CXCR4 cells.

What is called IC50 is the concentration at which inhibition is half-maximal.

Chain of human chemokine receptor type 4 (CXCR4) (human) (P61073 whole entry): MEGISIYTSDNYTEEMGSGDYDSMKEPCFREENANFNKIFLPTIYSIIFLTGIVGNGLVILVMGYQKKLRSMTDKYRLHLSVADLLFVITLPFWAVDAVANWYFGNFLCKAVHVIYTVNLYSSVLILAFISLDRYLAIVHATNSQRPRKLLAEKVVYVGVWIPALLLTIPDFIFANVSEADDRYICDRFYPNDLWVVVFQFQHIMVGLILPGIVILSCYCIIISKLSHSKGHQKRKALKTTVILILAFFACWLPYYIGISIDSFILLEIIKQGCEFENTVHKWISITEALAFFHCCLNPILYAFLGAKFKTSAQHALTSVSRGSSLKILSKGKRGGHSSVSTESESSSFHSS

On to Iodo-CPCR4, for which the 50% inhibitory concentration (IC50) in test [1] is recorded as 0.01 ?; in [2], 4.6 ?; in [3], 0.01 ?; in [4] it was 3.5 ?; in test [5], 0.02 ?; in test [6], 8.8 ?.

For “cyc[D-Tyr-(Me)D-Orn(Me, FB)-Arg-Nal-Gly] (peptide)”, the IC50 in test [7] was 59 nM.

Substance “cyc[D-Tyr-Orn(Ahx)-Arg-Nal-Gly] (peptide)” yielded an IC50 in test [7] of 70 nM.

Substance cyc[Nal-Gly-D-Tyr-Arg-Orn] (peptide) registered a half-inhibitory concentration (IC50) in [7] of 1000 nM.

For the substance “cyc[D-Tyr-Orn(FB)-Arg-Nal-Gly] (peptide)”, the IC50 in test [7] came out at 11 nM.

Take cyc[Nal-Gly-D-Tyr-Orn-Arg] (peptide): the IC50 in test [7] came to 9 nM.

On to CPCR4, cyclo[D-Tyr-Arg-Arg-Nal-Gly], for which the IC50 in test [8] was 3.8 nM; in test [9], 5.5 nM; in test [10] it was 3.7 ?; in [11], 6.8 ?; in test [5] it was 0.01 ?; in test [6] it was 6.9 ?.

In turn, “cyc[D-Tyr-Orn(Bz, FB)-Arg-Nal-Gly] (peptide)” yielded an IC50 in [7] of 100 nM.

Consider 125I-CPCR4, for which the values for the IC50 in [12] and in test [13] were 4 nM and 6.5 nM, respectively.

The substance “cyc[D-Tyr-D-Orn(FB)-Arg-Nal-Gly] (peptide)” gave an IC50 in [7] of 86 nM.
